In article doi:10.1101/2025.11.14.688508 (bioRxiv, 2025):

Biological target: the molecule itself
Assay: SEC

B1: DY-647P1-labeled recombinant human Bax single cysteine mutant (S4C, C62S, C126S) (natural protein)
chain: MDGCGEQPRGGGPTSSEQIMKTGALLLQGFIQDRAGRMGGEAPELALDPVPQDASTKKLSESLKRIGDELDSNMELQRMIAAVDTDSPREVFFRVAADMFSDGNFNWGRVVALFYFASKLVLKALSTKVPELIRTIMGWTLDFLRERLLGWIQDQGGWDGLLSYFGTPTWQTVTIFVAGVLTASLTIWKKMG
modifications: cysteine labeling with DY-647P1 (single cysteine mutant; degree of labeling ~74 %)
Q: Does B1 bind?
A: Result: binds
